Values quoted from earlier work in article PMC10086210.

Molecular target: PD-L1 (Homo sapiens) (UniProt Q9NZQ7)
UniProt Q9NZQ7, sequence (Q9NZQ7 19-238): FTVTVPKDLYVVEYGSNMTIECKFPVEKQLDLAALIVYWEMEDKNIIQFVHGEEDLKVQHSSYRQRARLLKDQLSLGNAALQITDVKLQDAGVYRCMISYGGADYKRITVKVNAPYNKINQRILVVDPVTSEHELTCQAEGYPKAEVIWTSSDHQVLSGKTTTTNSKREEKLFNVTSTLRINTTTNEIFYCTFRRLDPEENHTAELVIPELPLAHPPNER

Substance: DPPA-1
- Kd: 510 nM
